Data reported in article PMC9638875 (EMBO Reports, 2022).

Molecular target: the molecule itself
Experiment: SEC

B1: His6-eVP40 (Ebola virus matrix protein VP40) (natural protein)
chain: MRRVILPTAPPEYMEAIYPVRSNSTIARGGNSNTGFLTPESVNGDTPSNPLRPIADDTIDHASHTPGSVSSAFILEAMVNVISGPKVLMKQIPIWLPLGVADQKTYSFDSTTAAIMLASYTITHFGKATNPLVRVNRLGPGIPDHPLRLLRIGNQAFLQEFVLPPVQLPQYFTFDLTALKLITQPLPAATWTDDTPTGSNGALRPGISFHPKLRPILLPNKSGKKGNSADLTSPEKIQAIMTSLQDFKIVPIDPTKNIMGIEVPETLVHKLTGKKVTSKNGQPIIPVLLPKYIGLDPVAPGDLTMVITQDCDTCHSPASLPAVIEK
stoichiometry N: 2
